As a reminder, the Kd is the concentration at which binding is half-saturated. For orientation: koff means the first-order rate constant of dissociation. By kon is commonly meant the second-order rate constant of association.

The record followed here is patent US20230250191A1 (SHANGHAI JEMINCARE PHARMACEUTICAL, published 2023).

In assay [1] the target is T1, human FcRn (human, UniProt P55899 24-297; P61769 21-119).
T1 construct: Bought protein; also called hFcRn
Description: BLI (Octet RED96e), pH 6.0, FcRn captured through biotin-conjugated anti-His antibody, antibody 31.3-1000 nM. Here is the method: (§1) The affinity of the antibody to human FcRn (Acro, FCN-H52W7) and cynomolgus monkey FcRn (Acro, FCM-C52W9) was determined according to the method of Example 2 using Octet RED96e (Fortebio). Wherein, human FcRn and cynomolgus FcRn were diluted to 5 µg/mL with 1xPBS (10 mM Na2HPO4.12H2O, 2 mM KH2PO4, 137 mM NaCl, 2.7 mM KCl, pH 6.0), respectively, and biotin-conjugated THETM His-tagged mouse monoclonal antibody was diluted to 2 µg/mL; the antibody to be tested was diluted with 1x PBST (1xPBS, 0.02% Tween 20, pH6.0), and the antibody dilution concentration ranged from 1000 nM - 31.3 nM.
Background: In BLI a coated tip is dipped into the sample, and binding shifts an interference pattern.

In assay [2] the target is T2, cynomolgus monkey FcRn (cynomolgus monkey, UniProt Q8SPV9 24-297; Q8SPW0 21-119).
T2 construct: Bought protein; also called Cynomolgus FcRn; cynomolgus FcRn
Described as above. As to the method: as §1

Assay [3] concerns the target T3, cynomolgus monkey IgE CH3-CH4 (cynomolgus monkey).
T3 construct: domain: CH3-CH4; Custom protein; also called Biotin -cyno IgE CH3-CH4; Biotin-cyno IgE
In words: BLI (Octet), method of Example 2, biotinylated cynomolgus IgE CH3-CH4. Here is the method:
Detection of samples on machine (Octet Data Acquisition 11.1.0.11): First, samples were added to a 96-well plate (Greiner bio-one, 655209) with 200 µL/well according to the following table. The software parameters were then set, the plate temperature was set at 30° C., and the frequency of standard kinetic signals was collected at 5.0 Hz. Next, the CH1 sensor (Fortébio, 18-0039) with 1xPBST was pre-wet for 10 minutes, and then tested on the machine. Each cycle includes the following steps: 1) immersing in buffer for 60 s; 2) detecting whether the antigen non-specifically binds to the sensor; 3) regenerating with glycine solution at 10 mM pH 1.7; 4) immersing in buffer for 60 s; 5) immobilizating the antibody on the sensor for 30 s; 6) immersing the sensor in the buffer for 180 s; 7) Association of the antigen- antibody for 180 s; 8) dissociation of the antigen-antibody for 10 min; 9) regenerating the sensor.

T2 sequence (Q8SPV9 24-297 limits assumed, chain 1 of 2): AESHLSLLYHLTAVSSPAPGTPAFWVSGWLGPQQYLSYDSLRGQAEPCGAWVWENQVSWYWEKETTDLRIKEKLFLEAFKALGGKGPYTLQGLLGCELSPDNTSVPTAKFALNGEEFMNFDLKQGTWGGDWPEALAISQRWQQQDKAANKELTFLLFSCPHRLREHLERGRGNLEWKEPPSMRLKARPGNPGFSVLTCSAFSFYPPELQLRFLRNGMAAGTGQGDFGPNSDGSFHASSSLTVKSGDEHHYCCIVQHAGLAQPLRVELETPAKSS
T2 sequence (Q8SPW0 21-119 limits assumed, chain 2 of 2): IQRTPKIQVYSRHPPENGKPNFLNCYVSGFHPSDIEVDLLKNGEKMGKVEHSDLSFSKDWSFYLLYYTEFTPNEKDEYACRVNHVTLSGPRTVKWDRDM
T1 sequence (P55899 24-297 limits assumed, chain 1 of 2): as the sequence (Q8SPV9 24-297 limits assumed, chain 1 of 2) above, with D39N, Q44E, S99G, G189S, N190S, M217L, T269S counted along it
T1 sequence (P61769 21-119 limits assumed, chain 2 of 2): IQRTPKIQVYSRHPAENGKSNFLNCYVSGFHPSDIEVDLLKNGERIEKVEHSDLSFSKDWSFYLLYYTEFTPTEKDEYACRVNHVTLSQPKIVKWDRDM

B1: AB1904Am10 (antibody)
VL: DIQLTQSPSSLSASVGDRVTITCRASQSVGDEADSYMNWYQQKPGKAPKLLIYAASYLQSGVPSRFSGSGSGTDFTLTISSLQPEDFATYYCQQSHEDPYTFGQGTKLEIKRTVAAPSVFIFPPSDEQLKSGTASVVCLLNNFYPREAKVQWKVDNALQSGNSQESVTEQDSKDSTYSLSSTLTLSKADYEKHKVYACEVTHQGLSSPVTKSFNRGEC
VH: not shown
notes: IgG1 format
As to B1, in assay [1], the affinity, expressed as Kd, was 98.7 nM; the koff was found to be 0.121 s⁻¹; the kon stood at 1.22e+06 M⁻¹ s⁻¹. In assay [2], this molecule had a Kd of 91.4 nM, a koff of 0.106 s⁻¹ and a kon of 1.16e+06 M⁻¹ s⁻¹.

B2: AB1904Am15 (antibody)
VL: DIQLTQSPSSLSASVGDRVTITCRASQSVGDEADSYMNWYQQKPGKAPKLLIYAASYLQSGVPSRFSGSGSGTDFTLTISSLQPEDFATYYCQQSHEDPYTFGQGTKLEIKRTVAAPSVFIFPPSDEQLKSGTASVVCLLNNFYPREAKVQWKVDNALQSGNSQESVTEQDSKDSTYSLSSTLTLSKADYEKHKVYACEVTHQGLSSPVTKSFNRGEC
VH: EVQLVESGGGLVQPGGSLRLSCAVSGYSITSGYSWNWVRQAPGKGLEWVSVITYAGSTNYADSVKGRFTISRDDSKNTFYLQMNSLRAEDTAVYYCARGTHYFGHWHFAVWGQGTLVTVSSASTKGPSVFPLAPSSKSTSGGTAALGCLVKDYFPEPVTVSWNSGALTSGVHTFPAVLQSSGLYSLSSVVTVPSSSLGTQTYICNVNHKPSNTKVDKKVEPKSCDKTHTCPPCPAPELLGGPSVFLFPPKPKDTLYITREPEVTCVVVDVSHEDPEVKFNWYVDGVEVHNAKTKPREEQYNSTYRVVSVLTVLHQDWLNGKEYKCKVSNKALPAPIEKTISKAKGQPREPQVYTLPPSREEMTKNQVSLTCLVKGFYPSDIAVEWESNGQPENNYKTTPPVLDSDGSFFLYSKLTVDKSRWQQGNVFSCSVMHEALHNHYTQKSLSLSPGK
notes: Same variable regions as AB1904Am10
With B2, in assay [1], the Kd worked out at 32.8 nM, the koff came out at 0.0287 s⁻¹ and the kon came to 875000 M⁻¹ s⁻¹. For the same molecule, in assay [2], the Kd is 31.5 nM, the koff was 0.0291 s⁻¹ and the kon amounted to 922000 M⁻¹ s⁻¹.

B3: AB1904Am2 (antibody, V domains shown)
VH: EVQLVESGGGLVQPGGSLRLSCAVSGYSIRSGYSWNWVRQAPGKGLEWVSVITYAGSTNYADSVKGRFTISRDDSKNTFYLQMNSLRAEDTAVYYCARGSHYFGHWHFAVWGQGTLVTVSS
VL: DIQLTQSPSSLSASVGDRVTITCRASQSVADEWDSYMNWYQQKPGKAPKLLIYAASYLQSGVPSRFSGSGSGTDFTLTISSLQPEDFATYYCQQSHEDPYTFGQGTKLEIK
notes: IgG1 format
For the molecule B3, in assay [3], the Kd is 0.11 nM, the koff was 0.000222 s⁻¹ and the on-rate constant (kon) was determined as 2.06e+06 M⁻¹ s⁻¹.

B4: AB1904Am11 (antibody, V domains shown)
VH: EVQLVESGGGLVQPGGSLRLSCAVSGYSITSGYSWNWVRQAPGKGLEWVSVITYAGSTNYADSVKGRFTISRDDSKNTFYLQMNSLRAEDTAVYYCARGTHYFGHWHFAVWGQGTLVTVSS
VL: DIQLTQSPSSLSASVGDRVTITCRASQSVNDEADSYMNWYQQKPGKAPKLLIYAASYLQSGVPSRFSGSGSGTDFTLTISSLQPEDFATYYCQQSHEDPYTFGQGTKLEIK
notes: IgG1 format
On to B4, for which, in assay [3], binding was put at a Kd of 0.17 nM, the koff came to 0.000248 s⁻¹ and the kon was 1.5e+06 M⁻¹ s⁻¹.

B5: AB1904Am3 (antibody, V domains shown)
VH: EVQLVESGGGLVQPGGSLRLSCAVSGYSITSGYSWNWVRQAPGKGLEWVSVITYAGSTNYADSVKGRFTISRDDSKNTFYLQMNSLRAEDTAVYYCARGTHYFGHWHFAVWGQGTLVTVSS
VL: DIQLTQSPSSLSASVGDRVTITCRASQSVDAEGDSYMNWYQQKPGKAPKLLIYAASYLQSGVPSRFSGSGSGTDFTLTISSLQPEDFATYYCQQSHEDPYTFGQGTKLEIK
notes: IgG1 format
In assay [3], B5 showed a Kd of 0.16 nM, a koff of 0.000272 s⁻¹ and a kon of 1.7e+06 M⁻¹ s⁻¹.

B6: AB1904Am6 (antibody, V domains shown)
VH: EVQLVESGGGLVQPGGSLRLSCAVSGYSITSGYSWNWVRQAPGKGLEWVSVITYAGSTNYADSVKGRFTISRDDSKNTFYLQMNSLRAEDTAVYYCARGSNYFGHWHFAVWGQGTLVTVSS
VL: DIQLTQSPSSLSASVGDRVTITCRASQSVDSEGDSYMNWYQQKPGKAPKLLIYAASYLQSGVPSRFSGSGSGTDFTLTISSLQPEDFATYYCQQSHEDPYTFGQGTKLEIK
notes: IgG1 format
In assay [3], B6 gave a dissociation constant (Kd) of 0.18 nM, a koff of 0.000308 s⁻¹ and a kon of 1.74e+06 M⁻¹ s⁻¹.

B7: AB1904Am5 (antibody, V domains shown)
VH: EVQLVESGGGLVQPGGSLRLSCAVSGYSITSGYSWNWVRQAPGKGLEWVSVITYAGSTNYADSVKGRFTISRDDSKNTFYLQMNSLRAEDTAVYYCARGSHYFGHWHFAVWGQGTLVTVSS
VL: DIQLTQSPSSLSASVGDRVTITCRASQSVDDEYDSYMNWYQQKPGKAPKLLIYAASYLQSGVPSRFSGSGSGTDFTLTISSLQPEDFATYYCQQSHEDPYTFGQGTKLEIK
notes: IgG1 format
In assay [3], B7 showed a Kd of 0.15 nM, a koff of 0.000267 s⁻¹ and a kon of 1.77e+06 M⁻¹ s⁻¹.
